Data reported in the supplement of paper PMC10065799, “High-throughput profiling of sequence recognition by tyrosine kinases and SH2 domains using bacterial peptide display” (eLife, 2023).

Experiments:
AncSZ = test: phosphorylation enrichment, bacterial display (enrichment ratio); higher = better substrate or ligand; peptides without Tyr show the background
EPHB1 = EPHB1 (UniProt P54762); test: as above
EPHB2 = EPHB2 (UniProt P29323); test: as above
FGFR1 = FGFR1 (UniProt P11362); test: as above
FGFR3 = FGFR3 (UniProt P22607); test: as above
Fer (mouse) = test: as above
Fes = Fes (UniProt P07332); test: as above
Fyn = Fyn (UniProt P06241); test: as above
Hck = Hck (UniProt P08631); test: as above
Jak2 = Jak2 (UniProt O60674); test: as above
MERTK = MERTK (UniProt Q12866); test: as above
c-Abl (mouse) = test: as above
c-Src = test: as above
Grb2 SH2 = Grb2 SH2 (UniProt P62993); test: SH2 binding enrichment of the phosphorylated peptide, bacterial display (enrichment ratio); higher = better substrate or ligand; peptides without Tyr show the background
SHP2-C SH2 = test: as above
c-Src SH2 = test: as above
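For SH2 binding enrichment of the phosphorylated peptide, bacterial display in this document: peptide library displayed on the E. coli surface as eCPX fusions, selected cells deep-sequenced, score is each peptide's frequency after selection divided by its frequency in the input.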
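For phosphorylation enrichment, bacterial display in this document: 11-residue human phosphosite peptides and single-mutation variants displayed on the E. coli surface, counted by deep sequencing, each peptide's frequency after selection divided by its frequency in the unselected input library; frequency after pTyr selection over input frequency; kinase dosed for 20-30% of maximal phosphorylation in three min.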

Chain of MERTK (Q12866 whole entry, looked up): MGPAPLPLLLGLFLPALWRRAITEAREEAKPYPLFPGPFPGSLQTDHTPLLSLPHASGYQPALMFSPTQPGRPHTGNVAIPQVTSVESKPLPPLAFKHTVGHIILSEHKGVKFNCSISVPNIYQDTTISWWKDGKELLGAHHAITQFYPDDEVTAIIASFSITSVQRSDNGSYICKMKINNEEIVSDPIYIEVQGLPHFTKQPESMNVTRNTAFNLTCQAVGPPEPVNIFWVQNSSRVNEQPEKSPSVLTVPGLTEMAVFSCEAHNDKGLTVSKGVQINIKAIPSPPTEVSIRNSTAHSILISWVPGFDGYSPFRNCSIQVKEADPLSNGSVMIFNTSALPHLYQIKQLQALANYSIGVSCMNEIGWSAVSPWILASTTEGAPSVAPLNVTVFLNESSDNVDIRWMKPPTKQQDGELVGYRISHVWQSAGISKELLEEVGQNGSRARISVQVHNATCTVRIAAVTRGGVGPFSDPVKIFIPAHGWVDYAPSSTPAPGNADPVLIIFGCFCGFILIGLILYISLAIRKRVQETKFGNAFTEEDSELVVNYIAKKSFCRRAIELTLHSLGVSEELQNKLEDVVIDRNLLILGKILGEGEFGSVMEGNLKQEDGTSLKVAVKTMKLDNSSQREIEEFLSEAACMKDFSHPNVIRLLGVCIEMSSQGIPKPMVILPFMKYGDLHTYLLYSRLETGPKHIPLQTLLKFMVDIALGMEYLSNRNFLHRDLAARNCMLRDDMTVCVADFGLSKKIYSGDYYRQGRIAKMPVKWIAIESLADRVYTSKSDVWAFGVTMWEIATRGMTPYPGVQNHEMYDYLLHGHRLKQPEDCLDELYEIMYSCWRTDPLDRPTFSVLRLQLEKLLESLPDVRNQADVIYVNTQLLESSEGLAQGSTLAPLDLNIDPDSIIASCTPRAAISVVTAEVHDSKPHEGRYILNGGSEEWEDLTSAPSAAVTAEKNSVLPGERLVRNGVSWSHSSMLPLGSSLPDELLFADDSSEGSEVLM
Chain of EPHB1 (P54762 whole entry, looked up): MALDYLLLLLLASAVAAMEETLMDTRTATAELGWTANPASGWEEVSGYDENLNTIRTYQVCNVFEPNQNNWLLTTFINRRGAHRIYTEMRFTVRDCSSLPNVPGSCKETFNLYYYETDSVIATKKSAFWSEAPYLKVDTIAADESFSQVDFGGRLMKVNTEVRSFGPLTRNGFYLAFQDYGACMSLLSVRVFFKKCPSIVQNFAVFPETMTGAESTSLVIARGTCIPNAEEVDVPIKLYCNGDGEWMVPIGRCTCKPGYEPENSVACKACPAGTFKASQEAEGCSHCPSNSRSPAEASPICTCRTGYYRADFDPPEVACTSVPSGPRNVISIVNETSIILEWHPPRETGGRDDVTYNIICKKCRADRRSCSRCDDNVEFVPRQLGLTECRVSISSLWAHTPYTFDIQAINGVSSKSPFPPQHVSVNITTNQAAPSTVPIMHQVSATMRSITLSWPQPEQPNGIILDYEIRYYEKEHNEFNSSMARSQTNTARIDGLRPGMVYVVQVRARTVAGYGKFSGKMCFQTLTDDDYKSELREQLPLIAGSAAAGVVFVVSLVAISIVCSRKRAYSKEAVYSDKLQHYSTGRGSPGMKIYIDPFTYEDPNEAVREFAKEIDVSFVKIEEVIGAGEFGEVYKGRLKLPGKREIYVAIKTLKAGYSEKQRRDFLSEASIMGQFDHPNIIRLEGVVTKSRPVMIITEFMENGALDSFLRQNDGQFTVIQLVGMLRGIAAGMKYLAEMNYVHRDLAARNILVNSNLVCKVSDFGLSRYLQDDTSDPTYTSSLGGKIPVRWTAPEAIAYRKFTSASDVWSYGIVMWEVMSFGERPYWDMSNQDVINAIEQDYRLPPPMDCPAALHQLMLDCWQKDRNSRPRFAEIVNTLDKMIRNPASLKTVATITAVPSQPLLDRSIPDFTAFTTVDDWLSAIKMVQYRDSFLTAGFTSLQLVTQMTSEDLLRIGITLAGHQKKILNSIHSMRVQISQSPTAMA
Chain of Fes (P07332 whole entry, looked up): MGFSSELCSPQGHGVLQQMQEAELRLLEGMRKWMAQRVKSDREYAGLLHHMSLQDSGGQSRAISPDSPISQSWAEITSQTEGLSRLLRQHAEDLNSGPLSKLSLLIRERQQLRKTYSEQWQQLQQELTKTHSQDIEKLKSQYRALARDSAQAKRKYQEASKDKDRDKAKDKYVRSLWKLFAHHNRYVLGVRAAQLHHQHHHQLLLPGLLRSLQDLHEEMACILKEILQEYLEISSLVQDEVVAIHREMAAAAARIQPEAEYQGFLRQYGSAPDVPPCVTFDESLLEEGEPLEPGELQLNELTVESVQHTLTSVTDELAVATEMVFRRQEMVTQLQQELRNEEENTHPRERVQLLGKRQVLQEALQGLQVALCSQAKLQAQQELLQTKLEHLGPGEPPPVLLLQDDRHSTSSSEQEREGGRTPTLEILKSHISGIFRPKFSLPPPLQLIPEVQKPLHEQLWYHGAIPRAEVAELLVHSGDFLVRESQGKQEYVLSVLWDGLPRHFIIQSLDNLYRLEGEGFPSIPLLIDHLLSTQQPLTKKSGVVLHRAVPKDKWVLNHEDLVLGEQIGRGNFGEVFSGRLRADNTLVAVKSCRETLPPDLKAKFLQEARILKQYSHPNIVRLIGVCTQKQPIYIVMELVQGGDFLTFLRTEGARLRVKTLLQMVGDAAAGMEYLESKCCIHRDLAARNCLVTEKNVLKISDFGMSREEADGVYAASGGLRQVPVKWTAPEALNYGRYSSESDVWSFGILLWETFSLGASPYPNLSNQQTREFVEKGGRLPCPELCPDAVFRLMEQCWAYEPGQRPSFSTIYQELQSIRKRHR
Chain of Jak2 (O60674 whole entry, looked up): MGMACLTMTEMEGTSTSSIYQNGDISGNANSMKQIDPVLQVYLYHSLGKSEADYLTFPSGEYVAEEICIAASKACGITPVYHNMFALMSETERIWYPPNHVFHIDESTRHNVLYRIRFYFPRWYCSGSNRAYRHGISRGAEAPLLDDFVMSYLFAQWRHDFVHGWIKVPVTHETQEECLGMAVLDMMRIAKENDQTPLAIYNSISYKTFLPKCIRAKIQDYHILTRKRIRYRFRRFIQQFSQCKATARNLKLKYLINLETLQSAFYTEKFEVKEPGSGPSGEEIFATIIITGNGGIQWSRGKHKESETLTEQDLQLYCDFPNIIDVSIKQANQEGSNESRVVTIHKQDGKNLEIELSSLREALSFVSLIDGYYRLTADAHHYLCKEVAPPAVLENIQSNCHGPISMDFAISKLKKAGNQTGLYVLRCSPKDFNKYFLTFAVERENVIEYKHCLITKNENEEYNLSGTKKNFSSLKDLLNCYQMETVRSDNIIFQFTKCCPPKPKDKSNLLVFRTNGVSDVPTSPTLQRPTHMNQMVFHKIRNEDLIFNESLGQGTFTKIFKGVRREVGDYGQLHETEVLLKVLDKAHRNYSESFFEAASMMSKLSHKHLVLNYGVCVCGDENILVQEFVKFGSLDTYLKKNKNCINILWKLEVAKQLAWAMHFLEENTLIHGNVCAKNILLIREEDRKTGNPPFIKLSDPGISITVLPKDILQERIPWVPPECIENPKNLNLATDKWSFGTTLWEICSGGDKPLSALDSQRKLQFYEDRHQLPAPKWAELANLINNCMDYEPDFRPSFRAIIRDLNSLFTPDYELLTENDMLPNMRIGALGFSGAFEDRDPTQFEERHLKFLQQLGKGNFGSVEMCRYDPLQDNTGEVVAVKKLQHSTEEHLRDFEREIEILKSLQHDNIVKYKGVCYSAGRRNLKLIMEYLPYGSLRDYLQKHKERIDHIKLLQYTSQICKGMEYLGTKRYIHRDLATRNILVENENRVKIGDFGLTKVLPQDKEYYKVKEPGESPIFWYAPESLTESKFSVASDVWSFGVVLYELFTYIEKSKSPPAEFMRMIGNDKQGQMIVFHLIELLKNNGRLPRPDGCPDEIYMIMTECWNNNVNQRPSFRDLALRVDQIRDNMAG
Chain of Fyn (P06241 whole entry, looked up): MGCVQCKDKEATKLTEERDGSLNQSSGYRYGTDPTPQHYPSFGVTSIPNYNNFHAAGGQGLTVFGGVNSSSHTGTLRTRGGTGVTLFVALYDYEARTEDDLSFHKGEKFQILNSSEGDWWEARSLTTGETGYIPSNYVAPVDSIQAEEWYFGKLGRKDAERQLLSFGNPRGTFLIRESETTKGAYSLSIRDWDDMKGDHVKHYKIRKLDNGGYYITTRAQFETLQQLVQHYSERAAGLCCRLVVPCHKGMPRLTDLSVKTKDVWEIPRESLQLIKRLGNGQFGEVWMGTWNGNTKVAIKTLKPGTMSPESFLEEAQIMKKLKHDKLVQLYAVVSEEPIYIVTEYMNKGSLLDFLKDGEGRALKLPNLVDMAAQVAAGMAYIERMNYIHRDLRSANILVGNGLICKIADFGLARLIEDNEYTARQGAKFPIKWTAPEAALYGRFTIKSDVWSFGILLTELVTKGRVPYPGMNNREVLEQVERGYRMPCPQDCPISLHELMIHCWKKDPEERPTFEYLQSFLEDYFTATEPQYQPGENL
Chain of Hck (P08631 whole entry, looked up): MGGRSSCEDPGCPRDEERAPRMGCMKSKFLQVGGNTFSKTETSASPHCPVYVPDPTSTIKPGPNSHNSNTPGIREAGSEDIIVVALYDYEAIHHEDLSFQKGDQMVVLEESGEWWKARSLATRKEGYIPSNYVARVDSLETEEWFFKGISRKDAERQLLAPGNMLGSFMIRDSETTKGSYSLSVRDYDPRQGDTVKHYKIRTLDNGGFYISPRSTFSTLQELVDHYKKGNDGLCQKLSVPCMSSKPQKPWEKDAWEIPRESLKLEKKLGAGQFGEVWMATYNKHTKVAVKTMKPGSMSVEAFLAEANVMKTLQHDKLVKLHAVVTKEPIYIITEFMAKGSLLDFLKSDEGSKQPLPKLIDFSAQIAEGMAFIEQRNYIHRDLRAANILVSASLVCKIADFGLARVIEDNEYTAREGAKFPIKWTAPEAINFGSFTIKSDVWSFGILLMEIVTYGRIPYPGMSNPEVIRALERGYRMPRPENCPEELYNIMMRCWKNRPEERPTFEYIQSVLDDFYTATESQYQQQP

Row | Sequence | phosphorylation enrichment (AncSZ) | phosphorylation enrichment (EPHB1) | phosphorylation enrichment (EPHB2) | phosphorylation enrichment (FGFR1) | phosphorylation enrichment (FGFR3) | phosphorylation enrichment (Fer (mouse)) | phosphorylation enrichment (Fes) | phosphorylation enrichment (Fyn) | phosphorylation enrichment (Hck) | phosphorylation enrichment (Jak2) | phosphorylation enrichment (MERTK) | phosphorylation enrichment (c-Abl (mouse)) | phosphorylation enrichment (c-Src) | SH2 binding enrichment (Grb2 SH2) | SH2 binding enrichment (SHP2-C SH2) | SH2 binding enrichment (c-Src SH2)
1 | HEKKVYSFCGT [RPS6KA3_Y226_A225V] | 0.991 | 0.736 | 0.68 | 0.74 | 0.842 | 0.431 | 1.03 | 0.58 | 0.645 | 0.692 | 0.881 | 0.838 | 0.742 | 0.91 | 0.598 | 0.747
2 | HFGCVYHGTLL [MET_Y1093] | 1.8 | 1.21 | 0.991 | 1.04 | 1.19 | 0.967 | 1.67 | 1.08 | 0.9 | 1.28 | 0.637 | 1.33 | 4.11 | 0.98 | 0.754 | 0.524
3 | HFIKLYEEKTG [PARP1_Y618_M615I] | 1.69 | 1.17 | 1.08 | 0.456 | 0.807 | 0.798 | 0.952 | 0.978 | 0.828 | 1.03 | 0.694 | 0.781 | 0.392 | 1.16 | 1.57 | 0.872
4 | HGEAFYSEVKA [PAK5_Y182_P187A_YF] | 0.971 | 1.26 | 1.47 | 4.75 | 2.63 | 11 | 1.01 | 3.92 | 5.57 | 0.834 | 8.27 | 0.619 | 4.05 | 1.21 | 0.931 | 2.48
5 | HHTDEYEYDEL [TGM1_Y134] | 2.01 | 1.02 | 0.904 | 1.02 | 1.05 | 0.958 | 1.59 | 1.01 | 0.943 | 1.19 | 0.687 | 1.08 | 0.916 | 0.906 | 0.749 | 0.584
6 | HITQVYGFYDE [PPP2CA_Y127_Q122H] | 2.11 | 1.31 | 1.85 | 2.27 | 1.26 | 2.21 | 1.79 | 13.2 | 5.95 | 1.88 | 2.79 | 1.58 | 12.3 | 0.754 | 0.651 | 1.79
7 | HKGASYAFRLS [PTPRD_Y891_V892A] | 1.06 | 0.935 | 0.581 | 0.66 | 1.11 | 0.645 | 0.962 | 0.838 | 0.49 | 0.827 | 0.525 | 0.846 | 0.785 | 0.891 | 0.696 | 0.698
8 | HKLSYYEYDFE [BTK_Y40] | 1.86 | 2.02 | 1.38 | 7.25 | 4.03 | 0.64 | 2.13 | 2.13 | 0.952 | 1.6 | 3.67 | 1.26 | 2.48 | 1.05 | 0.941 | 3.4
9 | HLVLNYGVCVC [JAK2_Y613] | 2.33 | 1.61 | 1.27 | 0.91 | 1.8 | 0.99 | 2.31 | 1.1 | 0.985 | 1.99 | 1.44 | 1.49 | 0.779 | 0.796 | 0.795 | 0.52
10 | HNMPIYEGYAL [ACTA1_Y168_V165M] | 1.3 | 19.7 | 25.5 | 0.465 | 0.654 | 17.4 | 2.64 | 13.1 | 13.5 | 0.831 | 11 | 11.3 | 10.4 | 0.71 | 0.893 | 2.93
11 | HNVPIYEGYGL [ACTA1_Y168_A172G] | 1.52 | 31.8 | 41.9 | 0.666 | 0.941 | 27.9 | 5.48 | 20 | 17.4 | 0.805 | 10.9 | 3.23 | 11.5 | 0.755 | 0.886 | 1.33
12 | HPHECYAKVFD [ALB_Y394_D389H] | 1.16 | 0.641 | 0.441 | 0.636 | 0.845 | 0.624 | 1.36 | 0.622 | 0.654 | 1.3 | 0.764 | 1.01 | 0.659 | 0.944 | 2.67 | 3.07
13 | HRDDGYMPMSP [IRS1_Y612_T608R] | 0.785 | 0.577 | 0.53 | 0.534 | 0.715 | 0.683 | 0.817 | 0.572 | 0.488 | 1.16 | 0.37 | 0.756 | 0.589 | 0.746 | 0.545 | 3.65
14 | HRGCLYLAIEF [TEK_Y899_Y897C_YF] | 1.29 | 0.758 | 1.81 | 0.667 | 1.17 | 0.511 | 1.37 | 0.26 | 0.367 | 1.33 | 0.467 | 1.31 | 0.49 | 0.686 | 0.316 | 0.206
15 | HSGVSYYINLC [IGF2R_Y2024_N2020S] | 1.59 | 1.15 | 0.942 | 0.849 | 1.09 | 0.951 | 1.93 | 0.661 | 0.729 | 2.38 | 0.563 | 1.21 | 0.488 | 0.722 | 0.566 | 0.533
16 | HSKGIYYVQLE [MGAT4B_Y262_Q257H] | 1.28 | 1.68 | 1.03 | 5.54 | 3.3 | 0.615 | 1.39 | 3.29 | 2.88 | 4.4 | 9.49 | 1.02 | 4.78 | 1.08 | 1.76 | 1.31
17 | HSVLQYVGGVM [FGGY_Y136] | 1.05 | 0.943 | 0.977 | 0.944 | 1.18 | 0.73 | 1.48 | 0.776 | 0.833 | 1.11 | 0.986 | 0.846 | 0.738 | 0.961 | 0.511 | 0.493

Row | Sequence | phosphorylation enrichment (AncSZ) | phosphorylation enrichment (EPHB1) | phosphorylation enrichment (EPHB2) | phosphorylation enrichment (FGFR1) | phosphorylation enrichment (FGFR3) | phosphorylation enrichment (Fer (mouse)) | phosphorylation enrichment (Fes) | phosphorylation enrichment (Fyn) | phosphorylation enrichment (Hck) | phosphorylation enrichment (Jak2) | phosphorylation enrichment (MERTK) | phosphorylation enrichment (c-Abl (mouse)) | phosphorylation enrichment (c-Src) | SH2 binding enrichment (Grb2 SH2) | SH2 binding enrichment (SHP2-C SH2) | SH2 binding enrichment (c-Src SH2)
18 | HTEGEYSSLEH [IDH3B_Y171_Q166H] | 1.85 | 1.44 | 1.28 | 0.793 | 0.785 | 0.791 | 1.09 | 1.46 | 1.24 | 0.828 | 0.764 | 0.97 | 1.02 | 0.808 | 0.862 | 0.9
19 | IDAICYFRMEN [NPHS2_Y194_YF] | 1.26 | 0.692 | 0.623 | 0.656 | 0.949 | 0.484 | 1.59 | 0.572 | 0.612 | 2.44 | 0.556 | 0.974 | 0.613 | 0.673 | 0.89 | 0.703
20 | IGEGTSGVVYK [CDK2_Y15_Y15S] | 0.574 | 0.374 | 0.319 | 0.299 | 0.426 | 0.339 | 0.616 | 0.28 | 0.306 | 0.494 | 0.274 | 0.5 | 0.29 | 0.639 | 0.562 | 0.361
21 | IGERTYGQVFK [CDK13_Y716_G714R_YF] | 0.62 | 0.468 | 0.557 | 0.368 | 0.482 | 0.456 | 0.905 | 7.52 | 3.7 | 0.495 | 0.4 | 0.474 | 5.22 | 0.857 | 0.754 | 0.519
22 | IGMFSYVMLAS [GGCX_Y301] | 1.21 | 0.649 | 0.611 | 0.598 | 0.851 | 0.562 | 1.56 | 0.444 | 0.548 | 1.57 | 0.477 | 0.997 | 0.512 | 0.841 | 0.604 | 0.424
23 | IGSQRYQLGVR [RB1_Y446_K447Q] | 0.439 | 0.315 | 0.303 | 0.346 | 0.388 | 0.403 | 0.534 | 0.365 | 0.34 | 0.413 | 0.385 | 0.451 | 0.343 | 1.07 | 0.887 | 0.66
24 | IGVGSYSVCKR [RPS6KA3_Y433] | 0.716 | 0.369 | 0.412 | 0.354 | 0.496 | 0.385 | 0.878 | 0.317 | 0.383 | 0.618 | 0.445 | 0.53 | 0.362 | 0.867 | 0.88 | 0.938
25 | IHFAIYFLKYS [ARMC9_Y107_L108F] | 1.21 | 0.789 | 0.718 | 0.666 | 1.01 | 0.586 | 1.41 | 0.723 | 0.787 | 1.73 | 0.529 | 1.09 | 0.585 | 1.18 | 1.22 | 1.11
26 | IHHIDYYKETT [FGFR1_Y653_K656E] | 0.694 | 0.594 | 0.653 | 0.76 | 0.891 | 0.396 | 1.05 | 0.549 | 0.471 | 0.513 | 0.491 | 0.442 | 0.409 | 0.808 | 0.635 | 1.08
27 | IIAVHYVLEES [RYR2_Y4559] | 1 | 0.565 | 0.628 | 0.557 | 0.626 | 0.501 | 2.04 | 0.457 | 0.516 | 0.963 | 0.484 | 0.676 | 0.488 | 1.41 | 1.28 | 1.09
28 | IKAGAYDFPSP [CAMK2A_Y230] | 0.811 | 0.362 | 0.416 | 0.397 | 0.462 | 1.43 | 0.708 | 0.747 | 0.419 | 0.548 | 4.85 | 0.551 | 0.485 | 1.03 | 0.687 | 4.16
29 | ILGRTHFVNHE [NEDD4_Y627_Y627H_YF] | 0.633 | 0.471 | 0.535 | 0.397 | 0.559 | 0.457 | 0.707 | 0.476 | 0.451 | 0.485 | 0.423 | 0.5 | 0.377 | 0.899 | 0.637 | 0.466
30 | ILTLKYPIERG [ACTA1_Y71_H75R] | 0.669 | 0.542 | 0.663 | 0.572 | 0.655 | 0.407 | 0.812 | 0.554 | 0.49 | 0.675 | 0.442 | 0.581 | 0.479 | 0.901 | 1.01 | 0.691
31 | INNIDYFKNTT [FGFR2_Y656_K659N_YF] | 0.471 | 0.374 | 0.327 | 0.377 | 0.474 | 0.317 | 0.687 | 0.393 | 0.401 | 0.463 | 0.408 | 0.421 | 0.301 | 0.81 | 0.692 | 0.36
32 | INNIDYYKNTT [FGFR2_Y656_K659N] | 0.724 | 0.392 | 0.451 | 0.535 | 0.538 | 0.359 | 0.708 | 0.495 | 0.462 | 0.59 | 0.428 | 0.574 | 0.378 | 1.22 | 0.793 | 0.662
33 | INSLKYAFNVS [EIF2B5_Y583_I587V_YF] | 0.77 | 0.443 | 0.43 | 0.44 | 0.584 | 0.452 | 0.85 | 0.478 | 0.51 | 0.771 | 0.447 | 0.593 | 0.464 | 0.705 | 0.352 | 0.379
